PMC3373015

What was measured:
Asp38 [1] = target: T1, Asp38 (UniProt position 120, TFRLLDVDTPE); assay: NMR; settings: 298 K; 100 mM KCl, 0.5 mM NaN3 (no buffer stated); folded, no ligand
Asp38 [2] = target: T1, Asp38; assay: stability; settings: folded/unfolded equilibrium, no ligand
Asp143 = Asp143 (UniProt position 225, NIWSEDNADSG); assay: NMR
Asp146 = Asp146 (UniProt position 228, SEDNADSGQ--); assay: NMR
Asp19 = Asp19 (UniProt position 101, LIKAIDGDTVK); assay: NMR
Asp21 = Asp21 (UniProt position 103, KAIDGDTVKLM); assay: NMR
Asp40 [3] = target: Asp40 (UniProt position 122, RLLEVDTPETK); assay: NMR; settings: 298 K; 100 mM KCl, 0.5 mM NaN3 (no buffer stated); folded, no ligand
Asp77 = Asp77 (UniProt position 159, IEVEFDKGQRT); assay: NMR
Asp83 = Asp83 (UniProt position 165, KGQRTDKYGRG); assay: NMR
Asp95 = Asp95 (UniProt position 177, AYIYADGKMVN); assay: NMR
Glu10 = Glu10 (UniProt position 92, KKLHKEPATLI); assay: NMR
Glu101 = Glu101 (UniProt position 183, GKMVNEALVRQ); assay: NMR
Glu122 = Glu122 (UniProt position 204, GNNTHEQLLRK); assay: NMR
Glu129 = Glu129 (UniProt position 211, LLRKAEAQAKK); assay: NMR
Glu135 = Glu135 (UniProt position 217, AQAKKEKLNIW); assay: NMR
Glu142 = Glu142 (UniProt position 224, LNIWSEDNADS); assay: NMR
Glu38 [4] = target: T2, Glu38 (UniProt position 120, TFRLLEVDTPE); assay: NMR; settings: 298 K; 100 mM KCl, 0.5 mM NaN3 (no buffer stated); folded, no ligand
Glu43 [5] = target: Glu43 (UniProt position 125, EVDTPETKHPK); assay: NMR; settings: 298 K; 100 mM KCl, 0.5 mM NaN3 (no buffer stated); folded, no ligand
Glu52 = Glu52 (UniProt position 134, PKKFNEKYGPE); assay: NMR
Glu57 = Glu57 (UniProt position 139, EKYGPEASAFT); assay: NMR
Glu67 = Glu67 (UniProt position 149, TKKMVENAKKI); assay: NMR
Glu73 = Glu73 (UniProt position 155, NAKKIEVEFDK); assay: NMR
Glu75 = Glu75 (UniProt position 157, KKIEVEFDKGQ); assay: NMR
Glu38 [6] = target: T2, Glu38; assay: stability; settings: folded/unfolded equilibrium, no ligand
Asp40 [7] = target: Asp40 (UniProt position 122, RLLKVDTPETK); assay: NMR; settings: 298 K; 100 mM KCl, 0.5 mM NaN3 (no buffer stated); folded, no ligand
Glu43 [8] = target: Glu43 (UniProt position 125, KVDTPETKHPK); assay: NMR; settings: 298 K; 100 mM KCl, 0.5 mM NaN3 (no buffer stated); folded, no ligand
Lys38 = Lys38 (UniProt position 120, TFRLLKVDTPE); assay: stability; settings: cited from earlier work
Asp40 [9] = target: Asp40 (UniProt position 122, RLLLVDTPETK); assay: NMR; settings: folded Δ+PHS nuclease; cited from earlier work
Glu43 [10] = target: Glu43 (UniProt position 125, LVDTPETKHPK); assay: NMR; settings: folded Δ+PHS nuclease; cited from earlier work
His8 = His8 (UniProt position 90, STKKLHKEPAT); settings: folded Δ+PHS nuclease; cited from earlier work
[11] = 298 K, 100 mM KCl, 0.5 mM NaN3 (no buffer stated), folded, no ligand
[12] = folded Δ+PHS nuclease, cited from earlier work

Substance: Staphylococcal nuclease Δ+PHS/L38D (Staphylococcus aureus; G50F;V51N;P117G;H124L;S128A;del44-49;L38D)
- pKa (Asp38 [1]): 7.2
- pKa (Asp38 [2]): 6.8 +/- 0.3

Substance: Staphylococcal nuclease Δ+PHS/L38D/E122Q (Staphylococcus aureus; G50F;V51N;P117G;H124L;S128A;del44-49;L38D;E122Q)
- pKa (Asp38 [1]): 6.6
- pKa (Asp38 [2]): 6.9 +/- 0.3

Substance: Staphylococcal nuclease Δ+PHS/L38E (Staphylococcus aureus; G50F;V51N;P117G;H124L;S128A;del44-49;L38E)
- pKa (Asp143; [11]): 3.8
- pKa (Asp146; [11]): 3.9
- pKa (Asp19; [11]): < 2.5
- pKa (Asp21; [11]): 6.6
- pKa (Asp40 [3]): 3.9
- pKa (Asp77; [11]): < 2.5
- pKa (Asp83; [11]): < 2.5
- pKa (Asp95; [11]): 2.3
- pKa (Glu10; [11]): 3.1
- pKa (Glu101; [11]): 3.9
- pKa (Glu122; [11]): 3.8
- pKa (Glu129; [11]): 3.9
- pKa (Glu135; [11]): 3.8
- pKa (Glu142; [11]): 4.5
- pKa (Glu38 [4]): 7.0
- pKa (Glu43 [5]): 4.4
- pKa (Glu52; [11]): 4.0
- pKa (Glu57; [11]): 3.6
- pKa (Glu67; [11]): 3.8
- pKa (Glu73; [11]): 3.4
- pKa (Glu75; [11]): 3.3
- pKa (Glu38 [6]): 7.0 +/- 0.3

Substance: Staphylococcal nuclease Δ+PHS/L38E/D77N (Staphylococcus aureus; G50F;V51N;P117G;H124L;S128A;del44-49;L38E;D77N)
- pKa (Glu38 [4]): 6.1

Substance: Staphylococcal nuclease Δ+PHS/L38E/E122D (Staphylococcus aureus; G50F;V51N;P117G;H124L;S128A;del44-49;L38E;E122D)
- pKa (Glu38 [4]): 7.4

Substance: Staphylococcal nuclease Δ+PHS/L38E/E122Q (Staphylococcus aureus; G50F;V51N;P117G;H124L;S128A;del44-49;L38E;E122Q)
- pKa (Glu38 [4]): 6.2

Substance: Staphylococcal nuclease Δ+PHS/L38E/R126Q (Staphylococcus aureus; G50F;V51N;P117G;H124L;S128A;del44-49;L38E;R126Q)
- pKa (Glu38 [4]): 7.2

Substance: Staphylococcal nuclease Δ+PHS/L38K (Staphylococcus aureus; G50F;V51N;P117G;H124L;S128A;del44-49;L38K)
- pKa (Asp143; [11]): 4.0
- pKa (Asp146; [11]): 4.0
- pKa (Asp19; [11]): < 2.5
- pKa (Asp21; [11]): 6.5
- pKa (Asp40 [7]): 3.8
- pKa (Asp83; [11]): < 2.5
- pKa (Asp95; [11]): 2.1
- pKa (Glu10; [11]): 3.1
- pKa (Glu101; [11]): 3.9
- pKa (Glu122; [11]): 3.9
- pKa (Glu129; [11]): 3.8
- pKa (Glu135; [11]): 3.9
- pKa (Glu142; [11]): 4.6
- pKa (Glu43 [8]): 4.5
- pKa (Glu52; [11]): 4.1
- pKa (Glu57; [11]): 3.6
- pKa (Glu67; [11]): 3.9
- pKa (Glu73; [11]): 3.3
- pKa (Lys38): ≥ 10.4

Substance: Staphylococcal nuclease, Δ+PHS variant (Staphylococcus aureus; G50F;V51N;P117G;H124L;S128A;del44-49)
- pKa (Asp143; [12]): 3.8
- pKa (Asp146; [12]): 3.9
- pKa (Asp19; [12]): 2.2
- pKa (Asp21; [12]): 6.5
- pKa (Asp40 [9]): 3.9
- pKa (Asp77; [12]): < 2.5
- pKa (Asp83; [12]): < 2.5
- pKa (Asp95; [12]): 2.2
- pKa (Glu10; [12]): 2.8
- pKa (Glu101; [12]): 3.8
- pKa (Glu122; [12]): 3.9
- pKa (Glu129; [12]): 3.8
- pKa (Glu135; [12]): 3.8
- pKa (Glu142; [12]): 4.5
- pKa (Glu43 [10]): 4.3
- pKa (Glu52; [12]): 3.9
- pKa (Glu57; [12]): 3.5
- pKa (Glu67; [12]): 3.8
- pKa (Glu73; [12]): 3.3
- pKa (Glu75; [12]): 3.3
- pKa (His8): 6.5
